Experimental data reported in FireProtDB (doi:10.1074/jbc.270.30.17712).
“And” between values parts separate entries of the source, which are not always exact repeats. Equal values may be shown once.

Conditions: Escherichia coli (strain K12); pH 7.8; 23 °C; Urea; Absorbance; Potassium phosphate 10 mM; transition: 3; reversible: yes; whole UniProt chain shown

B1: Tryptophan synthase alpha chain wild type, P0A877 (protein)
chain: MERYESLFAQLKERKEGAFVPFVTLGDPGIEQSLKIIDTLIEAGADALELGIPFSDPLADGPTIQNATLRAFAAGVTPAQCFEMLALIRQKHPTIPIGLLMYANLVFNKGIDEFYAQCEKVGVDSVLVADVPVEESAPFRQAALRHNVAPIFICPPNADDDLLRQIASYGRGYTYLLSRAGVTGAENRAALPLNHLVAKLKEYNAAPPLQGFGISAPDQVKAAIDAGAAGAISGSAIVKIIEQHINEPEKMLAALKVFVQPMKAATRS
denaturant m value: 2.5 kcal/mol/M and 1.4 kcal/mol/M
denaturant midpoint (higher = more stable): 2.51 M and 3.73 M
unfolding free energy: 6.4 kcal/mol and 5.2 kcal/mol
